This note sets out measurements from the DeepSol protein solubility set.

This data set is described as follows: soluble on expression in E. coli; label from the status in PepcDB or PDB records.
In the case of “MKPANLIHPSVIMSKKYNKMGEGCIICASNIITVNVTLGDHIIVNLDCTIGHDVVINDYVTIYPSVNVSGNCNIGECVELGTGTQVIQGNNIGDRTIVGAGSVVIRNIEGDKVAVGVPTKVIKLEHHHHHH”, the “soluble on expression in E. coli” value is reported as “not soluble”.

Regarding “METVQLRNPPRRQLKKLDEDSLTKQPEEVFDVLEKLGEGSYGSVYKAIHKETGQIVAIKQVPVESDLQEIIKEISIMQQCDSPHVVKYYGSYFKNTDLWIVMEYCGAGSVSDIIRLRNKTLTEDEIATILQSTLKGLEYLHFMRKIHRDIKAGNILLNTEGHAKLADFGVAGQLTDTMAKRNTVIGTPFWMAPEVIQEIGYNCVADIWSLGITAIEMAEGKPPYADIHPMRAIFMIPTNPPPTFRKPELWSDNFTDFVKQCLVKSPEQRATATQLLQHPFVRSAKGVSILRDLINEAMDVKLKRQESQQREMDQDDEENSEEDEMDSGTMVRAVGDEMGTVRVASTMTDGANTMIEHDDTLPSQLGTMVINAEDEEEEG”, the “soluble on expression in E. coli” value is “soluble”. The result for “MGSSHHHHHHSSGENLYFQGHMNVLVIGRGGREHAIAWKAAQSPLVGKLYVAPGNPGIADVAELVHIDELDIEALVQFAKQQAIDLTIVGPEAPLASGIVDRFMAEGLRIFGPSQRAALIEGSKAFAKELMKKYGIPTADHAAFTSYEEAKAYIEQKGAPIVIKADGLAAGKGVTVAQTVEEALAAAKAALVDGQFGTAGSQVVIEEYLEGEEFSFMAFVNGEKVYPLAIAQDHKRAYDGDEGPNTGGMGAYSPVPQISDEMMDAALEAILRPAAKALAAEGRPFLGVLYAGLMATANGPKVIEFNARFGDPEAQVVLPRLKTDLVEAVLAVMDGKELELEWTDEAVLGVVLAAKGYPGAYERGAEIRGLDRISPDALLFHAGTKREGGAWYTNGGRVLLLAAKGETLAKAKEKAYEQLAAIDCDGLFYRRDIGRRAIERASAAYTRMKGR” reads “soluble”; that for “KPAPSAEHSYAEGEGLVKVFDNAPAEFTIFAVDTKGVARTDGGDPFEVAINGPDGLVVDAKVTDNNDGTYGVVYDAPVEGNYNVNVTLRGNPIKNMPIDVKCIEGANGEDSSFGSFTFTVAAKNKKGEVKTYGGDKFEVSITGPAEEITLDAIDNQDGTYTAAYSLVGNGRFSTGVKLNGKHIEGSPFKQVLGNPGKKNPEVKSFTTTRTAN”, “soluble”; that for “MGHHHHHHSHMAAEPVEDNCINFVAMKFIDNTLYFIAEDDENLESDYFGKLESKLSVIRNLNNQVLFIDQGNRPLFEDMTDSDCRDNAPRTIFIISMYKDSQPRGMAVTISVKCEKISTLSCENKIISFKEVNPPDNIKDTKSDIIFFQRSVPGHDNKMQFESSSYEGYFLTCEKERDLFKLILKKEDELGDRSIMFTVQNED”, “soluble”. The result for “MKQDMWELRKIQSQGITDNAQYPAGTYIVFTAAAPYIPLFEQHGKDDIALSLVRHEEAWWIVNHSDELCCAVNEQVMEPHHRMRLNDGDTIEWGLSSWCLARTNDESRPDVSFPQLVQSSESVAEYLDLDWFKQQQLNPQNPFDIIPVRETASSYTGHEADSTLHQLYQEYQQALRPSGQEKPLRAKPFPRNEDAVTQDLTSLYDKKGDTDTLQDMVAGAPGIDAILDTLDTTGEGEMHWLAMESMPDILQLLSPELGGKTAHSEILPDLTRREHRIIGIDSHYRITPTQKNGNTAHEKN” reads “not soluble”; that for “MSQNASVGIVMPQKIPFEMPLVLENGKTLPRFDLMIETYGELNAEKNNAVLICHALSGNHHVAGRHSAEDKYTGWWDNMVGPGKPIDTERFFVVGLNNLGGCDGSSGPLSINPETGREYGADFPVVTVKDWVKSQAALADYLGIEQWAAIVGGSLGGMQALQWTISYPERVRHALVIASAPKLSTQNIAFNDVARQAILTDPDFNEGHYRSHNTVPARGLRIARMMGHITYLAEDGLGKKFGRDLRSNGYQYGFGVEFEVESYLRYQGDKFVGRFDANTYLLMTKALDYFDPAADFGDSLTRALQNVKAKFFVASFSTDWRFAPERSHELVKALIAAQKSVQYIEVKSAHGHDAFLMEDEAYMRAVAAYMNNVYKECQQ”, “not soluble”; that for “MKNYHDIVLALAGVCQSAKLVHQLATESRADSETFLTALNSLFITQPQRIEDVFGGEVRHLKLGLETLIHQLNAQGDQNLTRYWLSLLALEGKLSKNSDAKQTLGNRISRLKEQEIHYARDSETMLSIMANIYSDIISPLGKKIHILGSPDYLRQELVQNKIRAVLLAGIRSAVLWKQMGGTKWQILFFRRKLLATAKQIYSSIY”, “not soluble”. The result for “IRRNETTEADKQIPHYEREIIYQVLYDMKKEIADLKGMMNRLAHHEQPSWPVGSDVWGNDDKRTADPKWGVSTHKAPIANAAEPVEPIQEASEYTEDPVSLEEVEKKMISLALERHGGRRKQTAEELKISERTLYRKIKEYGLE” reads “not soluble”; that for “MTNEKGLDKGYELVAKMHEVFGHPVTNTPTKLTEERAKIRASFMQEELEEFLEATTVEDQYDALIDLIYFAFGTFAEMGVRPDKGFEIVNNANMAKLFPDGKPRFREGDGKILKPEGWQAPEPQLRAEIERQRQEAEKNC”, “soluble”; that for “MQRLFRQKMIINSLGTSPTSVDTLVELTGASPATIRRDLTDLEGHGQLRKVHGGAVAVNLRGTPMPYSLRSAENAESKTAIAQLVSRLVTDDMSVIIDNGSTMVAVAQALQERPITALCLSLRAALPLGEGGVATVSTPDGTLMPESLRYAAASCLRALGEFRADVAIVGTCSASPAMGLTVTTHQDAQVKRAILASSARVVLAATGDKLSRTSSFRFGDIEDIDDLVTTRDAPQVTLDAFRVAGSRVYVADLEHHHHHH”, “soluble”. Take “MLRSFTIRTAKRDEMIDITSFVEETVRQANVTEGIAVVYCPHTTAGITINENADPDVKRDMMRRFDETYPWEHPLDRHMEGNTAAHMKASTVGASQHVIIHEGRLLLGRWQGVYFCEYDGPRHRTFYVKVIGG”: the “soluble on expression in E. coli” value was “not soluble”. The result for “MGVELSLDPPVCPIQANGGVSTHKIINHCDKMLAYKIKSSNNSNYSVNTIFGLIQIGYTADLIITRKPGKPQADKLVIQFAAVEQTCRDGCICQGCICQWTANWRVLWRDDHQAVSC” reads “not soluble”. Under “AVTKLVLVRHGESQWNKENRFTGWYDVDLSEKGVSEAKAAGKLLKEEGYSFDFAYTSVLKRAIHTLWNVLDELDQAWLPVEKSWKLNERHYGALQGLNKAETAEKYGDEQVKQWRRGFAVTPPELTKDDERYPGHDPRYAKLSEKELPLTESLALTIDRVIPYWNETILPRMKSGERVIIAAHGNSLRALVKYLDNMSEEEILELNIPTGVPLVYEFDENFKPLKRYYLGNADEIAAKAAAVANQGKAK” stands “soluble”; under “GPGSMADVADPSSELINELRALVVSGSGLVPLDERKVHTVVENMTDAFRHLESISRNPFADPSQPYYSGAMRFYKAKCLRDKRCVVAYLLWRQSQITKSWWEARDNTISNMLAPCERTFLQDYNDVMVEYMTSFAVPLDLRSFTWRPPSTQQLEVRGLVNHVFVSSITGAVINLYKGKQILLGFEEAESLIQQGVVELVE”, “not soluble”. Under “MGSDKIHHHHHHMTMPVPHAGPTPLCSNRMQVHSITQETPDVWTISLVNHDFYPYQPGQYALVSIANSEETLRAYTISSSPGLSRFITLTVRRLDDGVGSRWLTQTLKIGDYLWLSDAQGEFTCANAVSDRYLMAAAGCGVTPIMSMCRWLLANKPQIDIHIIFNVRNPQQVIFASEWQDLVQRYPQQLHLTLMAEFDAAPGFLAGRISGDLLVERVPDITNRTVMTCGPAPYMNQIETLSQQLGVASNRIFKEQFRPTDEVVDEDADQITLTISRPLKNLRVPVGISLLAALEANKVHVLAACRAGVCGSCKTRVLSGKYTTTSTMTLTPAEIEQGYVLACSCQLQGDTVLA” stands “not soluble”; under “MAHHHHHHMPHIPRNHYLVVHDAIRKLLGPDAQLAAFVKAQHAFQCDMLVNDARTDPEELTRAGARHSGGGIGDDAAAKAGVGELARGLQAVLGICDVVPHTRRVDVIFRDRSLIQLALGAAKRDLPYALETGADVNQEPDWRLRNRLRISLGYDEELFLAQCTRSMNVAARILEKCAFDYARYSALMSTNAAMAAMYEASGQRWQAVLPPVTYWQAHCYSLMKAYPCRHYQQIVATVEHNFAAYYGEFPMTNPYCDGEDLNTIQVVRWLCEAFNAGAAVSHVTSAASSPVTVNEWQTVDCSMPAAMEDGDAEKGAAVMDNMADGRSSQEGRH”, “not soluble”.
